# In patent publication US7351690B2, “Knockout identification of target-specific sites in peptides” (priority 2000, dated 2008):
# Square brackets hold non-standard residues; d marks the D form. Ends that are not written are not given here. Nle = CCCC[C@H](N)C(=O)O
# How the values were obtained:
# hMC4-R = target: T1, hMC4-R (Homo sapiens, UniProt P32245); experiment: competitive inhibition binding assay, 125I-NDP-alpha-MSH, hMC4-R membranes; details: for % Inhibition at 1 μM at Melanocortin Receptor 4: 1 μM test peptide, 0.4 nM 125I-NDP-alpha-MSH, hMC4-R membranes
# T1 construct: expressed in transfected cells
# Procedure: (§1) The competitive inhibition binding assay was conducted using membranes prepared from hMC3-R, hMC4-R, hMC5-R, and B-16 mouse melanoma cells (containing MC1-R) using 0.4 nM ^125I-NDP-alpha-MSH (New England Nuclear, Boston, Mass., USA) in 50 mM HEPES buffer containing 1 mM MgCl2, 2 mM CaCl2, and 5 mM KCl, at pH 7.2. The assay tube also contained a chosen concentration of the test peptide of this invention complexed to a rhenium metal ion, typically at a 1 μM concentration, for determining its efficacy in inhibiting the binding of ^125I-NDP-alpha-MSH to its receptor. Non-specific binding was measured by complete inhibition of binding of ^125I-NDP-alpha-MSH in the assay with the presence of 1 μM alpha-MSH. Incubation was for 90 minutes at room temperature, after which the assay mixture was filtered and the membranes washed three times with ice cold buffer. The filter was dried and counted in a gamma counter for remaining radioactivity bound to the membranes. 100% specific binding was defined as the difference in radioactivity (cpm) bound to cell membranes in the absence and presence of 1 μM alpha-MSH. The cpm obtained in presence of test compounds were normalized with respect to 100% specific binding to determine the percent inhibition of ^125I-NDP-alpha MSH binding. Each assay was conducted in triplicate and the actual mean valves are described.
# hMC3-R = target: T2, hMC3-R (Homo sapiens, UniProt P41968); experiment: competitive inhibition binding assay, 125I-NDP-alpha-MSH, hMC3-R membranes; details: for % Inhibition at 1 μM at Melanocortin Receptor 3: 1 μM test peptide, 0.4 nM 125I-NDP-alpha-MSH, hMC3-R membranes
# T2 construct: expressed in transfected cells
# Procedure: as §1
# hMC5-R = target: T3, hMC5-R (Homo sapiens, UniProt P33032); experiment: competitive inhibition binding assay, 125I-NDP-alpha-MSH, hMC5-R membranes; details: for % Inhibition at 1 μM at Melanocortin Receptor 5: 1 μM test peptide, 0.4 nM 125I-NDP-alpha-MSH, hMC5-R membranes
# T3 construct: expressed in transfected cells
# Procedure: as §1
# MC1-R = target: T4, MC1-R (Mus musculus, UniProt Q01727); experiment: competitive inhibition binding assay, 125I-NDP-alpha-MSH, B-16 mouse melanoma cell membranes; details: for % Inhibition at 1 μM at Melanocortin Receptor 1: 1 μM test peptide, 0.4 nM 125I-NDP-alpha-MSH, B-16 mouse melanoma cell membranes
# T4 construct: membranes prepared from hMC3-R, hMC4-R, hMC5-R, and B-16 mouse melanoma cells (containing MC1-R); endogenous in cells; host or cells: B-16 mouse melanoma cells (membranes)
# Procedure: as §1
# T4 sequence (Q01727 whole entry): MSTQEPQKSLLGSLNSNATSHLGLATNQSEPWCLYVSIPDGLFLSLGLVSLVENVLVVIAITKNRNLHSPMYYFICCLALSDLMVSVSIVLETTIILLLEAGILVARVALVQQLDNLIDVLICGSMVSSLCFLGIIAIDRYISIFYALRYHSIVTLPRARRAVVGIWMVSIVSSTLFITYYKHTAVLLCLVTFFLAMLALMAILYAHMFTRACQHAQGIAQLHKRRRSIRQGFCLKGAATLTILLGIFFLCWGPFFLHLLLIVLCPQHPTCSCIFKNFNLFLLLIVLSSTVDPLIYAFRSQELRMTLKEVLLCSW
# T1 sequence (P32245 whole entry): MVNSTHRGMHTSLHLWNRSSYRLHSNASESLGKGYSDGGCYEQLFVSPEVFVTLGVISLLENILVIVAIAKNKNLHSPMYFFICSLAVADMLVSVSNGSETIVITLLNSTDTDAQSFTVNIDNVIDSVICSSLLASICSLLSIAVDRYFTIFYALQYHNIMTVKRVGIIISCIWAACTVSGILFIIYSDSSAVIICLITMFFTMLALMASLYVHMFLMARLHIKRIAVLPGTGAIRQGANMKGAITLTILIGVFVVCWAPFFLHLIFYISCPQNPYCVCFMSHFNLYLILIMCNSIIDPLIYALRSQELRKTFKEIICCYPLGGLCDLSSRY
# T2 sequence (P41968 whole entry): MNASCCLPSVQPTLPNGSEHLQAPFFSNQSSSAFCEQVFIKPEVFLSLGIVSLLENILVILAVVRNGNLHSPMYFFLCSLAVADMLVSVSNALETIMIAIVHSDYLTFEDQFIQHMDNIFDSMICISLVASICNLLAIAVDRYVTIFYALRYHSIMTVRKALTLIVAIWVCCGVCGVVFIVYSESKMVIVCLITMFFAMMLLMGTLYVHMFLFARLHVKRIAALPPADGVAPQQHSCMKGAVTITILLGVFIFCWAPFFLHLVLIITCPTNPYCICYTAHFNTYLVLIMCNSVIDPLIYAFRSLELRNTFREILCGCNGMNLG
# T3 sequence (P33032 whole entry): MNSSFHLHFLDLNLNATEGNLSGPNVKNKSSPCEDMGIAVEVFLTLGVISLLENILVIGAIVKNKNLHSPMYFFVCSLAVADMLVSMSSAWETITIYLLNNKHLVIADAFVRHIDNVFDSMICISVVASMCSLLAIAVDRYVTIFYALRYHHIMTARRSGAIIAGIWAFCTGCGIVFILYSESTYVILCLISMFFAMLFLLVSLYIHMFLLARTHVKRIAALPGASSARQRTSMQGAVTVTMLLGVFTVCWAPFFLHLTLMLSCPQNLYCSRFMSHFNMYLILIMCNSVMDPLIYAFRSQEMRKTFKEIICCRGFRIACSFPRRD
Substance,% Inhibition at 1 μM at Melanocortin Receptor 4 (hMC4-R),% Inhibition at 1 μM at Melanocortin Receptor 3 (hMC3-R),% Inhibition at 1 μM at Melanocortin Receptor 5 (hMC5-R),% Inhibition at 1 μM at Melanocortin Receptor 1 (MC1-R),"binding to MC4-R, in words (hMC4-R)","binding to MC3-R, in words (hMC3-R)","binding to MC5-R, in words (hMC5-R)","binding to MC1-R, in words (MC1-R)"
Tyr-Val-Nle-Gly-His-Phe-Arg-Trp-Asp-Cys-Arg-Phe-NH2 (YV[Nle]GHFRWDCRF-NH2; numbers in words are those of the source; also: oxorhenium(V) N3S1 chelate (Re=O) with Cys) [4-3],23%,18%,65%,44%,–,–,–,–
Ac-Ser-Tyr-Ser-Nle-Glu-His-Phe-Arg-Trp-Gly-Lys-Gly-Val-D-Cys-NH2 (EHFRWGKGV; not fully specified; Ac-Ser-Tyr-Ser-Nle N-term; D-Cys; amide; printed: Glu-His-Phe-Arg-Trp-Gly-Lys-Gly-Val-) [2-1],46%,72%,53%,97%,–,–,–,–
Tyr-Val-Nle-Gly-Cys-His-D-Phe-Arg-Trp-Asp-Arg-Phe-NH2 (YV[Nle]GCH[dF]RWDRF-NH2; not fully specified (bridges); printed as Tyr-Val-Nle-Gly-Cys-His-D-Phe-Arg-Trp-Asp-Arg-Phe-NH2; numbers in words are those of the source; also: oxorhenium(V) N3S1 chelate complex (Re=O)) [3-9],55%,69%,67%,77%,–,–,–,–
Tyr-Val-Nle-Gly-His-D-Phe-Arg-Trp-Asp-Arg-Cys-Phe-NH2 (YV[Nle]GH[dF]RWDRCF-NH2; also: Re complex) [3-2],89%,91%,100%,99%,–,–,–,–
Ac-Ser-Tyr-Ser-Nle-Glu-His-Phe-Arg-Cys-Trp-Gly-Lys-Pro-Val-NH2 (Ac-SYS[Nle]EHFRCWGKPV-NH2; not fully specified (bridges); printed as Ac-Ser-Tyr-Ser-Nle-Glu-His-Phe-Arg-Cys-Trp-Gly-Lys-Pro-Val-NH2; numbers in words are those of the source; also: oxorhenium(V) N3S1 chelate (Re(V)=O)) [1-6],0%,0%,0%,29%,–,–,–,–
Ac-Ser-Tyr-Ser-Nle-Glu-His-D-Cys-Phe-Arg-Trp-Gly-Lys-Pro-Val-NH2 (CFRWGKPV; Ac-Ser-Tyr-Ser-Nle-Glu-His N-term; D-residue; amide; printed: Cys-Phe-Arg-Trp-Gly-Lys-Pro-Val-) [2-8],25%,0%,29%,69%,–,–,–,–
Ac-Ser-Tyr-Ser-Nle-Glu-His-Phe-Arg-Trp-Gly-Lys-Cys-Pro-Val-NH2 (Ac-SYS[Nle]EHFRWGKCPV-NH2; not fully specified (bridges); printed as Ac-Ser-Tyr-Ser-Nle-Glu-His-Phe-Arg-Trp-Gly-Lys-Cys-Pro-Val-NH2; numbers in words are those of the source; also: oxorhenium(V) N3S1 chelate (Re(V)=O)) [1-3],0%,0%,12%,87%,–,–,–,–
Tyr-Val-Nle-Gly-His-Phe-Arg-Cys-Trp-Asp-Arg-Phe-NH2 (YV[Nle]GHFRCWDRF-NH2; numbers in words are those of the source; also: oxorhenium(V) N3S1 chelate (Re=O) with Cys) [4-5],74%,87%,68%,89%,preserved all receptor binding,preserved all receptor binding,preserved all receptor binding,preserved all receptor binding
Ac-Ser-Tyr-Ser-Cys-Nle-Glu-His-Phe-Arg-Trp-Gly-Lys-Pro-Val-NH2 (chain 1 Ac-SYSC[Nle]; chain 2 EHFRWGKPV-NH2; not fully specified (bridges); printed as Ac-Ser-Tyr-Ser-Cys-Nle-Glu-His-Phe-Arg-Trp-Gly-Lys-Pro-Val-NH2; also: oxorhenium(V) N3S1 chelate (Re(V)=O)) [1-11],21%,18%,6%,95%,–,–,–,–
Ac-Ser-Tyr-Ser-D-Cys-Nle-Glu-His-Phe-Arg-Trp-Gly-Lys-Pro-Val-NH2 (Ac-SYS[dC][Nle]EHFRWGKPV-NH2; not fully specified (bridges); printed as Ac-Ser-Tyr-Ser-D-Cys-Nle-Glu-His-Phe-Arg-Trp-Gly-Lys-Pro-Val-NH2; numbers in words are those of the source; also: oxorhenium(V) N3S1 chelate (Re(V)=O)) [2-11],37%,5%,0%,95%,–,–,–,–
Tyr-Val-Nle-Gly-Cys-D-Phe-Arg-Trp-Asp-Arg-Phe-NH2 (YV[Nle]GC[dF]RWDRF-NH2; not fully specified (bridges); printed as Tyr-Val-Nle-Gly-Cys-D-Phe-Arg-Trp-Asp-Arg-Phe-NH2; numbers in words are those of the source; also: oxorhenium(V) N3S1 chelate complex (Re=O)) [5-7],69%,70%,88%,89%,–,–,–,–
Ac-Ser-Tyr-Ser-Nle-Glu-Cys-His-Phe-Arg-Trp-Gly-Lys-Pro-Val-NH2 (Ac-SYS[Nle]ECHFRWGKPV-NH2; not fully specified (bridges); printed as Ac-Ser-Tyr-Ser-Nle-Glu-Cys-His-Phe-Arg-Trp-Gly-Lys-Pro-Val-NH2; numbers in words are those of the source; also: oxorhenium(V) N3S1 chelate (Re(V)=O)) [1-9],3%,0%,6%,74%,–,–,–,–
Ac-Ser-Tyr-Ser-Nle-Glu-His-Phe-Arg-Trp-Gly-Lys-D-Cys-Pro-Val-NH2 (Ac-SYS[Nle]EHFRWGK[dC]PV-NH2; not fully specified (bridges); printed as Ac-Ser-Tyr-Ser-Nle-Glu-His-Phe-Arg-Trp-Gly-Lys-D-Cys-Pro-Val-NH2; numbers in words are those of the source; also: oxorhenium(V) N3S1 chelate (Re(V)=O)) [2-3],25%,41%,38%,91%,–,–,–,–
Ac-Ser-Tyr-Ser-Nle-Glu-His-Phe-Arg-Trp-D-Cys-Gly-Lys-Pro-Val-NH2 (chain 1 Ac-SYS[Nle]EHFRW; chain 2 [dC]GKPV-NH2; not fully specified (bridges); numbers in words are those of the source; also: oxorhenium(V) N3S1 chelate (Re(V)=O)) [2-5],4%,0%,0%,43%,–,–,–,–
